Substitutions are numbered along the chain they refer to. Like-named read-outs stand apart in the source and are kept apart here. Values belong to the binder of their own block, whether it stands above or below them.
Assays:
[1] = target: T1, human TrkB expressed on a stable cell line (human, UniProt Q16620 32-822); assay: cell-based or functional assay
[2] = target: T1, human TrkB expressed on a stable cell …; assay: cell-based or functional assay; remark: listed apart in the source

T1 sequence (Q16620 32-822): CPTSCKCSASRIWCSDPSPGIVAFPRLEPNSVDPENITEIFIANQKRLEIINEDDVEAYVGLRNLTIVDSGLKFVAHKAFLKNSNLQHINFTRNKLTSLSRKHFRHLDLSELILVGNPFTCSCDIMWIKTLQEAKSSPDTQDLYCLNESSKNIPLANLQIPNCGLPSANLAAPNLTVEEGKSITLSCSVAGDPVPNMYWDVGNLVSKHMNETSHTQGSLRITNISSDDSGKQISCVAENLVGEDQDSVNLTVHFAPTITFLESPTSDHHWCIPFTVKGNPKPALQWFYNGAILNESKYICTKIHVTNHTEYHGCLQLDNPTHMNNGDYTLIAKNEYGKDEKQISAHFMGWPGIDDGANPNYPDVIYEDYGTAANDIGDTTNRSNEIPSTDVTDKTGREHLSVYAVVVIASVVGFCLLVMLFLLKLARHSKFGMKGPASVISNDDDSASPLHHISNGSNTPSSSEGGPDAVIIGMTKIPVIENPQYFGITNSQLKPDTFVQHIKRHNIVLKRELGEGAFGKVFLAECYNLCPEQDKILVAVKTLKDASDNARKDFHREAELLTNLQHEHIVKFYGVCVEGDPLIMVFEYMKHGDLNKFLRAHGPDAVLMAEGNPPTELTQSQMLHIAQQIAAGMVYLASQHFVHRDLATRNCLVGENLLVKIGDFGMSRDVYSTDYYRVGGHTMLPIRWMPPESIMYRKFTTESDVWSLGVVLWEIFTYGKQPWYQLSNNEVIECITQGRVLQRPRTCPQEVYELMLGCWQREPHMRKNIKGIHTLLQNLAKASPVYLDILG

- EC50 (read off the curve), receptor tyrosine phosphorylation in trkB expressing cell line [1]: ~0.2 nM
- EC50 (read off the curve), receptor tyrosine phosphorylation in trkB expressing cell line [2]: ~0.7 nM
B1: human NT-4/5 (mature human neurotrophin-4/5) (ligand)
chain: GVSETAPASRRGELAVCDAVSGWVTDRRTAVDLRGREVEVLGEVPAAGGSPLRQYFFETRCKADNAEEGGPGAGGGGCRGVDRRHWVSECKAKQSYVRALTADAQGRVGWRWIRIDTACVCTLLSRTGRA

- EC50 (read off the curve), receptor tyrosine phosphorylation in trkB expressing cell line [2]: ~1 nM
B2: 2PEG-NT4-G1S (ligand)
chain: B1 chain with G1S
modifications: N-terminal serine (position 1) oxidized to an aldehyde and linked to 20K-m-PEG-HZ (methoxy polyethylene glycol hydrazide, 20 kDa)

- EC50 (read off the curve), receptor tyrosine phosphorylation in trkB expressing cell line [2]: ~1 nM
B3: 1PEG-NT4-G1S (ligand)
chain 1: B1 chain with G1S
chain 2: B1 chain with G1S
modifications: no PEG; N-terminal serine (position 1) treated with periodate (oxidized to an aldehyde); N-terminal serine (position 1) oxidized to an aldehyde and linked to 20K-m-PEG-HZ (methoxy polyethylene glycol hydrazide, 20 kDa)
